Measurements published in US6428997.

Legend:
[1] = biological target: T1, leucyl oligopeptide of SEQ ID NO: 2
T1 chain: LFPTEPS

[2] = biological target: T2, methionyl oligopeptide of SEQ ID NO: 1 (Met-Phe-Pro-Thr-Glu-Pro-Ser)
T2 chain: MFPTEPS

B1: Aeromonas proteolytica (Vibrio proteolytica) aminopeptidase (protein)
chain: MPPITQQATVTAWLPQVDASQITGTISSLESFTNRFYTTTSGAQASDWIASEWQALSASLPNASVKQVSHSGYNQKSVVMTITGSEAPDEWIVIGGHLDSTIGSHTNEQSVAPGADDDASGIAAVTEVIRVLSENNFQPKRSIAFMAYAAEEVGLRGSQDLANQYKSEGKNVVSALQLDMTNYKGSAQDVVFITDYTDSNFTQYLTQLMDEYLPSLTYGFDTCGYACSDHASWHNAGYPAAMPFESKFNDYNPRIHTTQDTLANSDPTGSHAKKFTQLGLAYAIEMGSATGDTPTPGNQ
B1 was tested, and the Kcat/Km [1] was 211000 M⁻¹ s⁻¹, the Km [1] was 336 µM and the kcat [1] was 70.3 s⁻¹. For the same protein, the Kcat/Km [2] was 3760 M⁻¹ s⁻¹, the Km [2] was 956 µM and the kcat [2] was 3.23 s⁻¹.
